Paper PMC6028617, “ADP-Dependent Kinases From the Archaeal Order Methanosarcinales Adapt to Salt by a Non-canonical Evolutionarily Conserved Strategy” (Frontiers in Microbiology, 2018)

T1: AncMsPFK/GK (synthetic construct, UniProt Z9Y5W3ZEF0)
T1 construct: heat step 80 C, Ni-Sepharose
T1 sequence (Z9Y5W3ZEF0 22-511): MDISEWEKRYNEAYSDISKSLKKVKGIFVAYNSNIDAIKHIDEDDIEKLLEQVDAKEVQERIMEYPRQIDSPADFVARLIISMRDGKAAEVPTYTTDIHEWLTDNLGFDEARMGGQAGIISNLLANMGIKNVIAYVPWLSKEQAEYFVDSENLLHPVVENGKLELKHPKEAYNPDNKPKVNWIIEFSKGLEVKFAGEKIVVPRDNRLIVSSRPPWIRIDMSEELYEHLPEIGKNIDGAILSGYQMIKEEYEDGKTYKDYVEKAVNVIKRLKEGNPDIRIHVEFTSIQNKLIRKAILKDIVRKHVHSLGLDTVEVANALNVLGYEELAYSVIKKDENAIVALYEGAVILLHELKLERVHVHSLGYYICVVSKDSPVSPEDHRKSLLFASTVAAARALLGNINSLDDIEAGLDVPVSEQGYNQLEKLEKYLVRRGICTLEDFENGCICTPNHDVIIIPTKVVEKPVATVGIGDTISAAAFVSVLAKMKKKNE

B1: MmazPFK/GK (Methanosarcina mazei Go1) (protein)
chain: MDMEEWEQRHNEAFYDAKEALPYLDGMFVAYNSNIDAIRHLDEEALTKLIGFFDEAEIQERVAVYPREIADPLDFIARLLIAMREGKAAEVPTYTEEIHTWLKEHLGFDYARMGGQAGIISNLLARLDLKKVVAYIPWLSAEQAEYFEDNGNILHPKVENGEVVLKTPAEAFNPGMGSKVNWIFEFSKDLKVSCAGSTFKVPRDNRLIISSRPKWIRLDMDRAIYDQLETIFPVDGAMLSGYQMIKEEYEDGSTYKDYVEHSVEVINKLKSLNPDLRIHVELTSIQNRVIRKAILTEIVARHVHSLGLDTVEVANALNVLGYEELSYSVIRKGENGIMSLYQGAVQLMKDLKLERVHVHSLGFYICILAKGHPLTLKEHRDALLFSSVLAASRALHGKIEDLNEAETGLDVPVSAQGLEDLETFKLYCTGRKLCSPDEFEYGYIYGSDHDAILIPSKVVDRPKATVGIGDTISAGAFAAMLARMKQIKSGK
notes: de novo codon-optimized gene in pET-15b, N-terminal poly-His tag, E. coli C41; heat step 50 C, Ni-NTA, HiTrap-Q

What was measured:
[1] = molecular target: T1, AncMsPFK/GK; assay: X-ray crystal structure, […] Å; type: binding; settings: Mg2+ in active site; Ni2+ at three surface sites; crystals pH 4.5
[2] = substrate: Nc1ncnc2c1ncn2[C@@H]1O[C@H](COP(=O)(O)OP(=O)(O)O)[C@@H](O)[C@H]1O; assay: purified protein; type: biochemical, Methanosarcina mazei; settings: PFK activity, saturating fructose-6P, 25 mM PIPES pH 6.5, 40 C, as Mg-ADP

Molecule | X-ray crystal structure, 2.86 Å [1] | Km [2] [µM] | kcat [2] [s⁻¹] | kcat/Km [2] [M⁻¹ s⁻¹]
Nc1ncnc2c1ncn2[C@@H]1O[C@H](COP(=O)(O)OP(=O)(O)O)[C@@H](O)[C@H]1O [ADP] | crystals for the ancMsPFK/GK in complex with ADP, which was solved by molecular replacement |  |  | 
B1 |  | 72 ± 9 | 6.1 ± 0.3 | 84500
